Assay results as given in paper doi:10.1101/2022.01.27.478073 (bioRxiv, 2022).

Target: T1, His-AtNRT1.4 (Arabidopsis, UniProt Q9SZY4 1-577)
T1 sequence (looked up): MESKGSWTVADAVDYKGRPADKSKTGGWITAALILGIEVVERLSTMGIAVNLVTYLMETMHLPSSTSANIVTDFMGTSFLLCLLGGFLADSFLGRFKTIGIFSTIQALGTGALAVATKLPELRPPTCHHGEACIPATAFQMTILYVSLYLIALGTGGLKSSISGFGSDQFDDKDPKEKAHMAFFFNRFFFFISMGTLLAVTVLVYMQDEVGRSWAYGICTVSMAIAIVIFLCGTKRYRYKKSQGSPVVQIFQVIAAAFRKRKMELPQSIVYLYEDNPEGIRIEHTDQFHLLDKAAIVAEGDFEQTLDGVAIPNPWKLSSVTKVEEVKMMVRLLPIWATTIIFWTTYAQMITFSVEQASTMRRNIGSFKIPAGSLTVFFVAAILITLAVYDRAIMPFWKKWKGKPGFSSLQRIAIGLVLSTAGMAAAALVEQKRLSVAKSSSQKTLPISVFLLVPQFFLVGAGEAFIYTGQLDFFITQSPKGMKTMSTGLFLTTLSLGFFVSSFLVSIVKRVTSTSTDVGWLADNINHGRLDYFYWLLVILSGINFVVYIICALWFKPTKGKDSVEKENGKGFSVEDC
Test: pull-down

B1: GST-AtGPA1 (natural protein, Arabidopsis, UniProt P18064 1-383, looked up)
chain: MGLLCSRSRHHTEDTDENTQAAEIERRIEQEAKAEKHIRKLLLLGAGESGKSTIFKQIKLLFQTGFDEGELKSYVPVIHANVYQTIKLLHDGTKEFAQNETDSAKYMLSSESIAIGEKLSEIGGRLDYPRLTKDIAEGIETLWKDPAIQETCARGNELQVPDCTKYLMENLKRLSDINYIPTKEDVLYARVRTTGVVEIQFSPVGENKKSGEVYRLFDVGGQRNERRKWIHLFEGVTAVIFCAAISEYDQTLFEDEQKNRMMETKELFDWVLKQPCFEKTSFMLFLNKFDIFEKKVLDVPLNVCEWFRDYQPVSSGKQEIEHAYEFVKKKFEELYYQNTAPDRVDRVFKIYRTTALDQKLVKKTFKLVDETLRRRNLLEAGLL
  binding result: binds
